Molecular target: T1, Recombinant FLAG-tagged shroom-2 PDZ domain (1st-110th amino acid) (human, UniProt Q13796 1-110)
T1 sequence (looked up): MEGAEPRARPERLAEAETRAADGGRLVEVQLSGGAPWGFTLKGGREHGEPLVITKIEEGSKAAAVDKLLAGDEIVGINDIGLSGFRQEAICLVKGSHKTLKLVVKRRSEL
Assay: co-IP

- Kd: 3.36 µM
B1: His-tagged peptide of the carboxy terminus of claudin-11, NH2-…-COOH (peptide)
peptide: {H2N-Met-H2N-H2N-H2N-H2N-H2N-H2N}-PTHAKSAHV-OH
SMILES: CSCC[C@H](N)C(=O)N1CCC[C@H]1C(=O)N[C@H](C(=O)N[C@@H](Cc1c[nH]cn1)C(=O)N[C@@H](C)C(=O)N[C@@H](CCCCN)C(=O)N[C@@H](CO)C(=O)N[C@@H](C)C(=O)N[C@@H](Cc1c[nH]cn1)C(=O)N[C@H](C(=O)O)C(C)C)[C@@H](C)O

Reference: publication PMC11995805 (BBA Advances, 2025)
